Values of other authors as cited in patent publication US9084831B2, “Molecular probe precursor for imaging of pancreatic islet, and use thereof” (Kyoto University, priority 2008, dated 2015).

Details: mouse, in vivo, iv; cited from earlier work

^125I labeled exendin(9-39): exendin(9-39), a GLP-1R ligand, 125I-labeled by Bolton-Hunter labeling (PerkinElmer NEX 335)
accumulation and binding among organs: accumulates selectively and specifically in the pancreas among organs
